Experimental data as given in patent US20250002610A1 (Genmab, published 2025).

Legend:
[1] = molecular target: T1, human DR4 (Death Receptor 4), cell surface expressed on human tumor cell lines (human, UniProt O00220 24-468); assay: flow cytometry, PANC-1 cells, n = 1
T1 construct: also called TNFRSF10A; TRAIL-R1
T1 sequence: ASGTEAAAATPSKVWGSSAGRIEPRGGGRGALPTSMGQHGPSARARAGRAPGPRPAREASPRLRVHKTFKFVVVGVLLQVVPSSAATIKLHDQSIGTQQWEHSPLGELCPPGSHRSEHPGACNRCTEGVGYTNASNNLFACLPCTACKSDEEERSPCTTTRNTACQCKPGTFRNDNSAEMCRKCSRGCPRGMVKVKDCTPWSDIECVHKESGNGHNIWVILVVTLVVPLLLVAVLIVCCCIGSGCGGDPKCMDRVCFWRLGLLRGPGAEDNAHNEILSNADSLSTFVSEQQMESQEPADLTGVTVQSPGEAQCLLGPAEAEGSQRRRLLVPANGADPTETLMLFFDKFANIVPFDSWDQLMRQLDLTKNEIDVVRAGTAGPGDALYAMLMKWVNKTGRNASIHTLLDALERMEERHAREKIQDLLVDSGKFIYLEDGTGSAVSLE

[2] = molecular target: T2, pig FAPα on Expi293F cells (pig (Sus scrofa), UniProt A5D7B7 1-760 (bovine entry)); assay: flow cytometry on Expi293F cells transiently expressing pig FAPα, gMFI PE
T2 chain: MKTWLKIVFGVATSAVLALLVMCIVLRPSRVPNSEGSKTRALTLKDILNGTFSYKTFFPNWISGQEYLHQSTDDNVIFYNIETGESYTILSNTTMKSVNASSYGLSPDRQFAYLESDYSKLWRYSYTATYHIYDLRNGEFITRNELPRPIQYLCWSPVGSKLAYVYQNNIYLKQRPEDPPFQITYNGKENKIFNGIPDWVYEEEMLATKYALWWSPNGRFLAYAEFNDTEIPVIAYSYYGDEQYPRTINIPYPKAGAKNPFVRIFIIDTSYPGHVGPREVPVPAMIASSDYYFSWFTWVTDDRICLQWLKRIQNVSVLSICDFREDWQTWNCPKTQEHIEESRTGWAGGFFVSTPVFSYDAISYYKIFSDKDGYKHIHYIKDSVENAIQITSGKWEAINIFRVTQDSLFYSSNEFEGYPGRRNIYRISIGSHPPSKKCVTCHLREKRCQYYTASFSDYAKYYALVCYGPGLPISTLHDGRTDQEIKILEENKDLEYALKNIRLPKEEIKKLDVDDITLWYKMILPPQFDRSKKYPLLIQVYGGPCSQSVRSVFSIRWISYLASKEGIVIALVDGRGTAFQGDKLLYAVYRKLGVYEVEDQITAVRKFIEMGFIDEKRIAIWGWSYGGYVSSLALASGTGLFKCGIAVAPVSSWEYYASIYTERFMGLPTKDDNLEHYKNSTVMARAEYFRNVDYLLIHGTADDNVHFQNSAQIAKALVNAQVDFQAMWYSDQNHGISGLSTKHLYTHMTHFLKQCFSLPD
Procedure: (§1) Binding of BisG1-FAPα-FERL/DR4-FERR, BisG1-FAPα-FEAL/b12-FEAR and IgG1-FAPα-FERL to FAPα of species commonly used for nonclinical toxicology studies was assessed by flow cytometry using Expi293F cells transiently expressing FAPα from different animal species. IgG1-b12 was included as negative control.
(§2) Expi293F cells expressing recombinant FAPα from various species (human, cynomolgus monkey, dog, pig, rat or mouse) were seeded (20,000 cells/well) in 96-Well round bottom plates (Greiner Bio-one, Cat #650101). Antibody dilutions were prepared using FACS buffer, consisting of PBS (Capricorn Scientific, Cat #PBS-10XA, diluted to 1×PBS in distilled water)+1% BSA (Roche, Cat #10735086001)+0.02% Sodium Azide (Bio-World, Cat #41920044-3). Plates were centrifuged, supernatant was removed, and cells were resuspended in 100 μL of antibody dilutions (concentration range 30-0.00017 μg/mL with three-fold serial dilutions using FACS buffer) of BisG1-FAPα-FERL/DR4-FERR, BisG1-FAPα-FEAL/b12-FEAR, IgG1-FAPα-FERL and IgG1-b12 and incubated for 30 min at 4° C. […] After 30 min incubation at 4° C., cells were washed with FACS buffer and resuspended in FACS buffer supplemented with TO-PRO-3 Iodide viability marker (Invitrogen, Cat #T3605, diluted 1:4,000). Antibody binding to viable cells (gMFI of PE on TO-PRO-3 negative cells) was analyzed by flow cytometry on a FACS Celesta and FACS_Diva software (first two experiments) or iQue® 3 and FlowJo software (last experiment). gMFI was determined and visualized using GraphPad Prism. Binding curves were analyzed using nonlinear regression analysis. The concentration (pg/mL) at which 50% of the maximal effect was observed (EC₅₀) was derived from the fitted curves.

[3] = molecular target: T3, dog FAPα on Expi293F cells (dog (Canis familiaris), UniProt A5D7B7 1-760 (bovine entry)); assay: flow cytometry on Expi293F cells transiently expressing dog FAPα, gMFI PE
T3 chain: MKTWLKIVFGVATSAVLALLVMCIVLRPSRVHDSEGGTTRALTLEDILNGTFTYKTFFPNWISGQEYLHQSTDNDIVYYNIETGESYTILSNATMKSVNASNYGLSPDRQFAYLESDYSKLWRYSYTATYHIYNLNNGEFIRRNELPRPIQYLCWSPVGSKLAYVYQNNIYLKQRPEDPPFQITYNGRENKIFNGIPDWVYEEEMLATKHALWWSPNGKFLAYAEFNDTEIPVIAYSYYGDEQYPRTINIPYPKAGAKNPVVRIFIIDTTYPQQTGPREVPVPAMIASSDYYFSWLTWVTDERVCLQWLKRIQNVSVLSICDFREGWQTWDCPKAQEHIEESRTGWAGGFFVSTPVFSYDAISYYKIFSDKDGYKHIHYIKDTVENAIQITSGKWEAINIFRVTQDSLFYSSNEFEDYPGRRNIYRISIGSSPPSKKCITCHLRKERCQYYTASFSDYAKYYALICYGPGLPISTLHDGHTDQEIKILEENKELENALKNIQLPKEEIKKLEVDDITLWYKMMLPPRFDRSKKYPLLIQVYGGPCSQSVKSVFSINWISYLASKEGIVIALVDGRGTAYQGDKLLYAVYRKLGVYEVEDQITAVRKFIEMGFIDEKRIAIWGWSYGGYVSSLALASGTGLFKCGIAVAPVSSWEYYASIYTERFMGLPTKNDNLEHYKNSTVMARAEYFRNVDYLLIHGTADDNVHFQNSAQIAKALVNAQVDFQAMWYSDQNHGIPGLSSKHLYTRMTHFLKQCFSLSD
Procedure: as §1, §2

B1: BisG1-FAPα-FERL/DR4-FERR (bispecific antibody, human IgG1, kappa, lambda)
heavy 1: EVQLLESGGGLVQPGGSPRLSCEASGFTFSSYALSWVRQAPGKGLEWVSAISGSGGGRYYADSVKGRFTISRDNSKNTLFLQMNSLRAEDTAVYYCAKEGYSSSGTYWDHWGQGTLVTVSSASTKGPSVFPLAPSSKSTSGGTAALGCLVKDYFPEPVTVSWNSGALTSGVHTFPAVLQSSGLYSLSSVVTVPSSSLGTQTYICNVNHKPSNTKVDKRVEPKSCDKTHTCPPCPAPEFERGPSVFLFPPKPKDTLMISRTPEVTCVVVDVSHEDPEVKFNWYVDGVEVHNAKTKPREEQYNSTYRVVSVLTVLHQDWLNGKEYKCKVSNKALPAPIEKTISKAKGQPREPQVYTLPPSREEMTKNQVSLTCLVKGFYPSDIAVEWESNGQPENNYKTTPPVLDSDGSFLLYSKLTVDKSRWQQGNVFSCSVMHEALHNHYTQKSLSLSPG
light 1: AIQMTQSPSSVSASVGDRVTITCRASQGVSSWLAWYQQKPGRAPKLLIYVASTLQSGVPSRFSGSGSGTDFTLTINSLQPEDFATYYCQQANSFPPTFGQGTRLEMKRTVAAPSVFIFPPSDEQLKSGTASVVCLLNNFYPREAKVQWKVDNALQSGNSQESVTEQDSKDSTYSLSSTLTLSKADYEKHKVYACEVTHQGLSSPVTKSFNRGEC
heavy 2: QVQLQESGPGLVKPSGTLSLTCAVSGGSISSYSWWSWIRQPPGKGLEWIGELYHSGSTNYNPSLKSRVTISVDKSKNQFSLKLRSVTAADTAVYYCVRGVATIDYWGQGTLVTVSSASTKGPSVFPLAPSSKSTSGGTAALGCLVKDYFPEPVTVSWNSGALTSGVHTFPAVLQSSGLYSLSSVVTVPSSSLGTQTYICNVNHKPSNTKVDKRVEPKSCDKTHTCPPCPAPEFERGPSVFLFPPKPKDTLMISRTPEVTCVVVDVSHEDPEVKFNWYVDGVEVHNAKTKPREEQYNSTYRVVSVLTVLHQDWLNGKEYKCKVSNKALPAPIEKTISKAKGQPREPQVYTLPPSREEMTKNQVSLTCLVKGFYPSDIAVEWESNGQPENNYKTTPPVLDSDGSFFLYSRLTVDKSRWQQGNVFSCSVMHEALHNHYTQKSLSLSPG
light 2: QSALTQPPSASGSPGQSVTISCTGTSSDVGGYNFVSWYQQDPGKAPKLLIYEVTKRPSGVPDRFSGSKSGNTASLTVSGLQAEDEADYYCSSYAGSNNVMFGGGTKLTVLGQPKAAPSVTLFPPSSEELQANKATLVCLISDFYPGAVTVAWKADSSPVKAGVETTTPSKQSNNKYAASSYLSLTPEQWKSHRSYSCQVTHEGSTVEKTVAPTECS
notes: Human IgG1 bispecific made by controlled Fab-arm exchange of IgG1-FAPα-FERL and IgG1-DR4-FERR; monovalent for FAPα and for DR4; also called GEN1057
EC50 [1]: 1.8 µg/mL | binding result [2]: binds | binding result [3]: binds
